Assay results from patent publication US20140206609A1 (Sanofi, published 2014).
*1 amine or outer side, *2 acyl side, *3 side chain or, on linkers, in order; H or OH if unused. Where no end group is shown, it is not given here. Side-chain parts run from the residue outwards. [ ]: non-standard residue; d: D form. The star is where a group is joined. γGlu = O=C(O)[C@H](CCC(=O)[*:2])N[*:1]; Stearoyl = CCCCCCCCCCCCCCCCCC(=O)*; Palmitoyl = CCCCCCCCCCCCCCCC(=O)*; Aib = CC(C)(N)C(=O)O; βAla = NCCC(=O)O

T1: human GIP receptor (human, UniProt P48546 22-466)
T1 sequence (looked up): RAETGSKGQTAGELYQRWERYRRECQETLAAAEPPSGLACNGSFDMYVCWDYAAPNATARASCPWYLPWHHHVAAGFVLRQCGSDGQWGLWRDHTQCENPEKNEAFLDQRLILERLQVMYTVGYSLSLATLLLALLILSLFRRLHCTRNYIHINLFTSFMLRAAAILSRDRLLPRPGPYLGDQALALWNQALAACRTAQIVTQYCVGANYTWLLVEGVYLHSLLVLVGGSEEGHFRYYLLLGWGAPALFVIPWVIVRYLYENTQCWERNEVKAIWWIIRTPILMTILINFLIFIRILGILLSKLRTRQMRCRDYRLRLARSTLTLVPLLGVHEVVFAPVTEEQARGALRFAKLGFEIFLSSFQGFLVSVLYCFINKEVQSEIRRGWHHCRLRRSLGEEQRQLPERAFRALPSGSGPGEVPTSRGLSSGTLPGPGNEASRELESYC

B1: SEQ ID NO: 8 (peptide)
peptide: Y[Aib]QGTFTSDLSIQK([γGlu-Palmitoyl])EKRAA[Aib]EFIEWLKNTGPSSGAPPPS-NH2
modifications: N-terminus assumed
SMILES: CCCCCCCCCCCCCCCC(=O)N[C@@H](CCC(=O)NCCCC[C@H](NC(=O)[C@H](CCC(N)=O)NC(=O)[C@@H](NC(=O)[C@H](CO)NC(=O)[C@H](CC(C)C)NC(=O)[C@H](CC(=O)O)NC(=O)[C@H](CO)NC(=O)[C@@H](NC(=O)[C@H](Cc1ccccc1)NC(=O)[C@@H](NC(=O)CNC(=O)[C@H](CCC(N)=O)NC(=O)C(C)(C)NC(=O)[C@@H](N)Cc1ccc(O)cc1)[C@@H](C)O)[C@@H](C)O)[C@@H](C)CC)C(=O)N[C@@H](CCC(=O)O)C(=O)N[C@@H](CCCCN)C(=O)N[C@@H](CCCNC(=N)N)C(=O)N[C@@H](C)C(=O)N[C@@H](C)C(=O)NC(C)(C)C(=O)N[C@@H](CCC(=O)O)C(=O)N[C@@H](Cc1ccccc1)C(=O)N[C@H](C(=O)N[C@@H](CCC(=O)O)C(=O)N[C@@H](Cc1c[nH]c2ccccc12)C(=O)N[C@@H](CC(C)C)C(=O)N[C@@H](CCCCN)C(=O)N[C@@H](CC(N)=O)C(=O)N[C@H](C(=O)NCC(=O)N1CCC[C@H]1C(=O)N[C@@H](CO)C(=O)N[C@@H](CO)C(=O)NCC(=O)N[C@@H](C)C(=O)N1CCC[C@H]1C(=O)N1CCC[C@H]1C(=O)N1CCC[C@H]1C(=O)N[C@@H](CO)C(N)=O)[C@@H](C)O)[C@@H](C)CC)C(=O)O
B2: SEQ ID NO: 10 (peptide)
peptide: Y[Aib]EGTFTSDLSIQK([γGlu-Palmitoyl])ESRAAQDFIEWLKAGGPSSGAPPPS-NH2
modifications: N-terminus assumed
SMILES: CCCCCCCCCCCCCCCC(=O)N[C@@H](CCC(=O)NCCCC[C@H](NC(=O)[C@H](CCC(N)=O)NC(=O)[C@@H](NC(=O)[C@H](CO)NC(=O)[C@H](CC(C)C)NC(=O)[C@H](CC(=O)O)NC(=O)[C@H](CO)NC(=O)[C@@H](NC(=O)[C@H](Cc1ccccc1)NC(=O)[C@@H](NC(=O)CNC(=O)[C@H](CCC(=O)O)NC(=O)C(C)(C)NC(=O)[C@@H](N)Cc1ccc(O)cc1)[C@@H](C)O)[C@@H](C)O)[C@@H](C)CC)C(=O)N[C@@H](CCC(=O)O)C(=O)N[C@@H](CO)C(=O)N[C@@H](CCCNC(=N)N)C(=O)N[C@@H](C)C(=O)N[C@@H](C)C(=O)N[C@@H](CCC(N)=O)C(=O)N[C@@H](CC(=O)O)C(=O)N[C@@H](Cc1ccccc1)C(=O)N[C@H](C(=O)N[C@@H](CCC(=O)O)C(=O)N[C@@H](Cc1c[nH]c2ccccc12)C(=O)N[C@@H](CC(C)C)C(=O)N[C@@H](CCCCN)C(=O)N[C@@H](C)C(=O)NCC(=O)NCC(=O)N1CCC[C@H]1C(=O)N[C@@H](CO)C(=O)N[C@@H](CO)C(=O)NCC(=O)N[C@@H](C)C(=O)N1CCC[C@H]1C(=O)N1CCC[C@H]1C(=O)N1CCC[C@H]1C(=O)N[C@@H](CO)C(N)=O)[C@@H](C)CC)C(=O)O
B3: SEQ ID NO: 18 (peptide)
peptide: Y[Aib]EGTFTSDLSIQK([βAla-βAla-Stearoyl])EKRAA[Aib]EFIEWLKNTGPSSGAPPPS-NH2
modifications: N-terminus assumed
SMILES: CCCCCCCCCCCCCCCCCC(=O)NCCC(=O)NCCC(=O)NCCCC[C@H](NC(=O)[C@H](CCC(N)=O)NC(=O)[C@@H](NC(=O)[C@H](CO)NC(=O)[C@H](CC(C)C)NC(=O)[C@H](CC(=O)O)NC(=O)[C@H](CO)NC(=O)[C@@H](NC(=O)[C@H](Cc1ccccc1)NC(=O)[C@@H](NC(=O)CNC(=O)[C@H](CCC(=O)O)NC(=O)C(C)(C)NC(=O)[C@@H](N)Cc1ccc(O)cc1)[C@@H](C)O)[C@@H](C)O)[C@@H](C)CC)C(=O)N[C@@H](CCC(=O)O)C(=O)N[C@@H](CCCCN)C(=O)N[C@@H](CCCNC(=N)N)C(=O)N[C@@H](C)C(=O)N[C@@H](C)C(=O)NC(C)(C)C(=O)N[C@@H](CCC(=O)O)C(=O)N[C@@H](Cc1ccccc1)C(=O)N[C@H](C(=O)N[C@@H](CCC(=O)O)C(=O)N[C@@H](Cc1c[nH]c2ccccc12)C(=O)N[C@@H](CC(C)C)C(=O)N[C@@H](CCCCN)C(=O)N[C@@H](CC(N)=O)C(=O)N[C@H](C(=O)NCC(=O)N1CCC[C@H]1C(=O)N[C@@H](CO)C(=O)N[C@@H](CO)C(=O)NCC(=O)N[C@@H](C)C(=O)N1CCC[C@H]1C(=O)N1CCC[C@H]1C(=O)N1CCC[C@H]1C(=O)N[C@@H](CO)C(N)=O)[C@@H](C)O)[C@@H](C)CC
B4: SEQ ID NO: 15 (peptide)
peptide: Y[Aib]EGTFTSDLSIQK([γGlu-Stearoyl])EKRAA[Aib]EFIEWLKNTGPSSGAPPPS-NH2
modifications: N-terminus assumed
SMILES: CCCCCCCCCCCCCCCCCC(=O)N[C@@H](CCC(=O)NCCCC[C@H](NC(=O)[C@H](CCC(N)=O)NC(=O)[C@@H](NC(=O)[C@H](CO)NC(=O)[C@H](CC(C)C)NC(=O)[C@H](CC(=O)O)NC(=O)[C@H](CO)NC(=O)[C@@H](NC(=O)[C@H](Cc1ccccc1)NC(=O)[C@@H](NC(=O)CNC(=O)[C@H](CCC(=O)O)NC(=O)C(C)(C)NC(=O)[C@@H](N)Cc1ccc(O)cc1)[C@@H](C)O)[C@@H](C)O)[C@@H](C)CC)C(=O)N[C@@H](CCC(=O)O)C(=O)N[C@@H](CCCCN)C(=O)N[C@@H](CCCNC(=N)N)C(=O)N[C@@H](C)C(=O)N[C@@H](C)C(=O)NC(C)(C)C(=O)N[C@@H](CCC(=O)O)C(=O)N[C@@H](Cc1ccccc1)C(=O)N[C@H](C(=O)N[C@@H](CCC(=O)O)C(=O)N[C@@H](Cc1c[nH]c2ccccc12)C(=O)N[C@@H](CC(C)C)C(=O)N[C@@H](CCCCN)C(=O)N[C@@H](CC(N)=O)C(=O)N[C@H](C(=O)NCC(=O)N1CCC[C@H]1C(=O)N[C@@H](CO)C(=O)N[C@@H](CO)C(=O)NCC(=O)N[C@@H](C)C(=O)N1CCC[C@H]1C(=O)N1CCC[C@H]1C(=O)N1CCC[C@H]1C(=O)N[C@@H](CO)C(N)=O)[C@@H](C)O)[C@@H](C)CC)C(=O)O
B5: SEQ ID NO: 39 (peptide)
peptide: Y[Aib]EGTFTSDLSIQK([γGlu-Palmitoyl])ESRAAQEFIEWLKAGGPSSGAPPPS-NH2
modifications: N-terminus assumed
SMILES: CCCCCCCCCCCCCCCC(=O)N[C@@H](CCC(=O)NCCCC[C@H](NC(=O)[C@H](CCC(N)=O)NC(=O)[C@@H](NC(=O)[C@H](CO)NC(=O)[C@H](CC(C)C)NC(=O)[C@H](CC(=O)O)NC(=O)[C@H](CO)NC(=O)[C@@H](NC(=O)[C@H](Cc1ccccc1)NC(=O)[C@@H](NC(=O)CNC(=O)[C@H](CCC(=O)O)NC(=O)C(C)(C)NC(=O)[C@@H](N)Cc1ccc(O)cc1)[C@@H](C)O)[C@@H](C)O)[C@@H](C)CC)C(=O)N[C@@H](CCC(=O)O)C(=O)N[C@@H](CO)C(=O)N[C@@H](CCCNC(=N)N)C(=O)N[C@@H](C)C(=O)N[C@@H](C)C(=O)N[C@@H](CCC(N)=O)C(=O)N[C@@H](CCC(=O)O)C(=O)N[C@@H](Cc1ccccc1)C(=O)N[C@H](C(=O)N[C@@H](CCC(=O)O)C(=O)N[C@@H](Cc1c[nH]c2ccccc12)C(=O)N[C@@H](CC(C)C)C(=O)N[C@@H](CCCCN)C(=O)N[C@@H](C)C(=O)NCC(=O)NCC(=O)N1CCC[C@H]1C(=O)N[C@@H](CO)C(=O)N[C@@H](CO)C(=O)NCC(=O)N[C@@H](C)C(=O)N1CCC[C@H]1C(=O)N1CCC[C@H]1C(=O)N1CCC[C@H]1C(=O)N[C@@H](CO)C(N)=O)[C@@H](C)CC)C(=O)O
B6: SEQ ID NO: 38 (peptide)
peptide: Y[Aib]QGTFTSDLSIQK([γGlu-Palmitoyl])DKRAA[Aib]EFIEWLKNTGPSSGAPPPS-NH2
modifications: N-terminus assumed
SMILES: CCCCCCCCCCCCCCCC(=O)N[C@@H](CCC(=O)NCCCC[C@H](NC(=O)[C@H](CCC(N)=O)NC(=O)[C@@H](NC(=O)[C@H](CO)NC(=O)[C@H](CC(C)C)NC(=O)[C@H](CC(=O)O)NC(=O)[C@H](CO)NC(=O)[C@@H](NC(=O)[C@H](Cc1ccccc1)NC(=O)[C@@H](NC(=O)CNC(=O)[C@H](CCC(N)=O)NC(=O)C(C)(C)NC(=O)[C@@H](N)Cc1ccc(O)cc1)[C@@H](C)O)[C@@H](C)O)[C@@H](C)CC)C(=O)N[C@@H](CC(=O)O)C(=O)N[C@@H](CCCCN)C(=O)N[C@@H](CCCNC(=N)N)C(=O)N[C@@H](C)C(=O)N[C@@H](C)C(=O)NC(C)(C)C(=O)N[C@@H](CCC(=O)O)C(=O)N[C@@H](Cc1ccccc1)C(=O)N[C@H](C(=O)N[C@@H](CCC(=O)O)C(=O)N[C@@H](Cc1c[nH]c2ccccc12)C(=O)N[C@@H](CC(C)C)C(=O)N[C@@H](CCCCN)C(=O)N[C@@H](CC(N)=O)C(=O)N[C@H](C(=O)NCC(=O)N1CCC[C@H]1C(=O)N[C@@H](CO)C(=O)N[C@@H](CO)C(=O)NCC(=O)N[C@@H](C)C(=O)N1CCC[C@H]1C(=O)N1CCC[C@H]1C(=O)N1CCC[C@H]1C(=O)N[C@@H](CO)C(N)=O)[C@@H](C)O)[C@@H](C)CC)C(=O)O

Assays:
Assay in all cases: cell-based or functional assay
[1] = biological target: human GLP-1 receptor (human, UniProt P43220 24-463)
[2] = biological target: T1, human GIP receptor
[3] = biological target: human glucagon receptor (human, UniProt P47871 26-477)
human glucagon receptor, sequence (P47871 26-477): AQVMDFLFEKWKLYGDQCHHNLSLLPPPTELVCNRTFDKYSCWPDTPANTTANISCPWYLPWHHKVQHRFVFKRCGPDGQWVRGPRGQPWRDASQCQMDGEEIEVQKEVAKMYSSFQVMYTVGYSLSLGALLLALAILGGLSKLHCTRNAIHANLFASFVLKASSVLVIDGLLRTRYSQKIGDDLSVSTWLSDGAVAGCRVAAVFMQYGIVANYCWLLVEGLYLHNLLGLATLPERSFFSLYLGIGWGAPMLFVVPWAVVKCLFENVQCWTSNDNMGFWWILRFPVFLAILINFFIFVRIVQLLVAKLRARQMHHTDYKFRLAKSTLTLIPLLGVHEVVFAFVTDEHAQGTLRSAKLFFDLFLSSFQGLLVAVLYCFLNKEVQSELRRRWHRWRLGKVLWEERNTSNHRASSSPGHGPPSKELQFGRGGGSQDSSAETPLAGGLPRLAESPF

Binder	EC50 hGLP-1 R [pM] [1]	EC50 hGIP R [pM] [2]	EC50 hGLUC R [pM] [3]
B1	5.3 pM	9.8 pM	18.3 pM
B2	13.2 pM	15.1 pM	40000 pM
B3	7.6 pM	–	4950 pM
B4	–	8.2 pM	5810 pM
B5	4.3 pM	8.5 pM	19300 pM
B6	6.7 pM	11.2 pM	11.4 pM
